According to PMC12295313 (2025):
Changes are numbered by the printed parent chain.

What was measured:
[1] = target: T1, FGFR1c ectodomain (extracellular ligand-binding domain of FGFR1c), P11362; assay: SPR; conditions: chains chain, remark: other sources report otherwise
T1 chain: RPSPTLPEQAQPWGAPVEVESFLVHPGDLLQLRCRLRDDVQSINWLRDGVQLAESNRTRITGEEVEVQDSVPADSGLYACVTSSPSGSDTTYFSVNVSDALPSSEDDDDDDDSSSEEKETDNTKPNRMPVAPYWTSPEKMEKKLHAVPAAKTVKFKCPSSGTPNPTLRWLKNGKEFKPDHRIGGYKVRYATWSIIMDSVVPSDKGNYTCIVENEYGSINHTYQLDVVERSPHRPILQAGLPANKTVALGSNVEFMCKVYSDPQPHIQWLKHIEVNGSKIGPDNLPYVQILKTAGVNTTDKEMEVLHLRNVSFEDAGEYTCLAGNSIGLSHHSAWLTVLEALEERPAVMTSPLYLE

[2] = target: T2, FGFR1c ectodomain (extracellular ligand-binding domain of FGFR1c) (UniProt P11362 22-376); assay: SPR
T2 chain: T1 chain

B1: Recombinant human wild-type FGF21 (His29-Ser209), Q9NSA1 29-209 (protein)
chain: HPIPDSSPLLQFGGQVRQRYLYTDDAQQTEAHLEIREDGTVGGAADQSPESLLQLKALKPGVIQILGVKTSRFLCQRPDGALYGSLHFDPEACSFRELLLEDGYNVYQSEAHGLPLHLPGNKSPHRDPAPRGPARFLPLPGLPPALPEPPGILAPQPPDVGSSDPLSMVGPSQGRSPSYAS
[1]
  Kd: 7.96 µM

B2: FGF21^D2D3 (FGF21 with its R96–V106 region replaced by the L101–T111 segment of FGF1) (ligand)
chain: B1 chain with R96L, L98R, L100E, D102N, G103H, V106T
[2]
  Kd: 3.94 µM
